Ends that are not written are not given here. YFP = yellow fluorescent protein
B1: yellow fluorescent protein (YFP)-PLN (natural protein, UniProt P61014 1-52, looked up)
chain: {YFP}-MEKVQYLTRSAIRRASTIEMPQQARQNLQNLFINFCLILICLLLICIIVMLL
modifications: cysteine pairing not given here
notes: phospholamban (PLN); In the PLN-PLN and PLN-DWORF FRET experiments one partner must have carried the donor (Cer); it may be another species (e.g. canine) in the cited FRET work; also called phospholamban; source: AAV-293 cells, transiently transfected, in live cells

Key:
mCerulean (Cer)-SERCA2a [1] = target: mCerulean (Cer)-SERCA2a (UniProt O55143); experiment: FRET or BRET; progressive acceptor photobleaching of YFP in live transfected AAV-293 cells; donor against acceptor fluorescence, a linear relationship taken as a 1:1 complex
mCerulean (Cer)-SERCA2a [2] = target: T1, mCerulean (Cer)-SERCA2a (UniProt O55143-2 1-998); experiment: as above; details: partners not purified
T1 construct: SERCA2a, the predominant cardiac isoform of the sarco(endo)plasmic reticulum Ca2+-ATPase; also called SR Ca2+-ATPase; source: AAV-293 cells, transiently transfected, in live cells
T1 sequence (O55143 other isoform, or with tags, fused parts or gaps): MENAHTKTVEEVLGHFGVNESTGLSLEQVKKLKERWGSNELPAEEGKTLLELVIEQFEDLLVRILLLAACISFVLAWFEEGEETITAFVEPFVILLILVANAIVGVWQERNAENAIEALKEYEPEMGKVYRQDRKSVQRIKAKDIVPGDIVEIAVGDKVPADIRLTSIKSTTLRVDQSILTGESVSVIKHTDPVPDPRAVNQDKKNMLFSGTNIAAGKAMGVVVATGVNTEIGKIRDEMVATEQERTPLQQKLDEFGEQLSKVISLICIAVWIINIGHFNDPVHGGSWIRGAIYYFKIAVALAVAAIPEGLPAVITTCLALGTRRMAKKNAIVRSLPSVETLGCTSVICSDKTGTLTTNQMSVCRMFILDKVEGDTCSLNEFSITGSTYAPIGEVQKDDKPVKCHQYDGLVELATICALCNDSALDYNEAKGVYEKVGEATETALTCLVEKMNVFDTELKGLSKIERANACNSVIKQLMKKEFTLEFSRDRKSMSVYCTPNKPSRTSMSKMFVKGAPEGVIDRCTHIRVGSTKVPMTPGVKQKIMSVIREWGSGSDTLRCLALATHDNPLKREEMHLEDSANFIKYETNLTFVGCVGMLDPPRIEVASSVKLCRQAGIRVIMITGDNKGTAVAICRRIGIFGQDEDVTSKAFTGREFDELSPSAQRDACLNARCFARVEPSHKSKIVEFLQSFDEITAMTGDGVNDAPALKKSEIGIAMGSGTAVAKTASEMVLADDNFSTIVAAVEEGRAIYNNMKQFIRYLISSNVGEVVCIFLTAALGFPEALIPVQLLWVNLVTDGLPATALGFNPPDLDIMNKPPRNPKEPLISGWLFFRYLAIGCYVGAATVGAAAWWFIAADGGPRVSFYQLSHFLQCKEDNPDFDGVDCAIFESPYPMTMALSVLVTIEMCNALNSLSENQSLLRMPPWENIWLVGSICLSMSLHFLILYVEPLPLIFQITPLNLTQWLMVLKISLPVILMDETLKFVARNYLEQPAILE

Chain of mCerulean (Cer)-SERCA2a (UniProt O55143) (O55143 other isoform, or with tags, fused parts or gaps): as above

Molecule	stoichiometry N (mCerulean (Cer)-SERCA2a [1])	stoichiometry N (mCerulean (Cer)-SERCA2a [2])
yellow fluorescent protein (YFP)-DWORF (peptide)	1	–
B1	–	1

Reference: article PMC6202051, “The DWORF micropeptide enhances contractility and prevents heart failure in a mouse model of dilated cardiomyopathy” (eLife, 2018)
